Test results published in patent US20160201097A1, “Materials and Methods of Producing 7-Carbon Monomers” (INVISTA North America S.á.r.l., priority 2014, published 2016).
Blank lines part the entries; values can stand above or below the molecule they belong to.

Columns and labels:
[1] = carboxylate reductase activity: N7-acetyl-7-aminoheptanoate to N7-acetyl-7-aminoheptanal (NADPH consumption, A340); format: biochemical; conditions: purified enzyme enhanced by sfp gene product, 2 mM N7-acetyl-7-aminoheptanoate, pH 7.5, room temperature, 20 min; against the empty vector control (FIG. 10)
Protocol: The activity of each of the N-terminal His-tagged carboxylate reductases of SEQ ID NOs: 3, 5, and 6 (see Examples 2 and 3, and FIG. 6) for converting N7-acetyl-7-aminoheptanoate to N7-acetyl-7-aminoheptanal was assayed in triplicate in a buffer composed of a final concentration of 50 mM HEPES buffer (pH=7.5), 2 mM N7-acetyl-7-aminoheptanoate, 10 mM MgCl2, 1 mM ATP, and 1 mM NADPH. The assays were initiated by adding purified carboxylate reductase and phosphopantetheine transferase or the empty vector control to the assay buffer containing the N7-acetyl-7-aminoheptanoate then incubated at room temperature for 20 min. The consumption of NADPH was monitored by absorbance at 340 nm.

[2] = carboxylate reductase activity: pimelate to pimelate semialdehyde (NADPH consumption, A340); format: biochemical; conditions: purified enzyme enhanced by sfp gene product, 2 mM pimelate, pH 7.5, room temperature, 20 min; against the empty vector control (FIG. 8)
Protocol: A nucleotide sequence encoding a HIS-tag was added to the nucleic acid sequences from Segniliparus rugosus and Segniliparus rotundus that encode the carboxylate reductases of SEQ ID NOs: 4 (EFV11917.1) and 6 (ADG98140.1), respectively (see FIG. 6), such that N-terminal HIS tagged carboxylate reductases could be produced. Each of the modified genes was cloned into a pET Duet expression vector along with a sfp gene encoding a HIS-tagged phosphopantetheine transferase from Bacillus subtilis, both under the T7 promoter. Each expression vector was transformed into a BL21[DE3] E. coli host and the resulting recombinant E. coli strains were cultivated at 37° C. in a 250 mL shake flask culture containing 50 mL LB media and antibiotic selection pressure, with shaking at 230 rpm. Each culture was induced overnight at 37° C. using an auto-induction media.
The pellet from each induced shake flask culture was harvested via centrifugation. Each pellet was resuspended and lysed via sonication, and the cell debris was separated from the supernatant via centrifugation. […]
Enzyme activity assays (i.e., from pimelate to pimelate semialdehyde) were performed in triplicate in a buffer composed of a final concentration of 50 mM HEPES buffer (pH=7.5), 2 mM pimelate, 10 mM MgCl2, 1 mM ATP and 1 mM NADPH. […] The consumption of NADPH was monitored by absorbance at 340 nm. […]

[3] = ω-transaminase activity, reverse direction: 7-aminoheptanoate to pimelate semialdehyde (L-alanine formation by RP-HPLC); format: biochemical; conditions: cell free extract, 10 mM 7-aminoheptanoate, 10 mM pyruvate, pH 7.5, 25° C., 4 h; against the empty vector control (FIG. 13)
Protocol: (§1) A nucleotide sequence encoding an N-terminal His-tag was added to the nucleic acid sequences from Chromobacterium violaceum, Pseudomonas syringae, Rhodobacter sphaeroides, and Vibrio fluvialis encoding the ω-transaminases of SEQ ID NOs: 7, 9, 10 and 12, respectively (see FIG. 6) such that N-terminal HIS tagged ω-transaminases could be produced. Each of the resulting modified genes was cloned into a pET21a expression vector under control of the T7 promoter and each expression vector was transformed into a BL21[DE3] E. coli host. The resulting recombinant E. coli strains were cultivated at 37° C. in a 250 mL shake flask culture containing 50 mL LB media and antibiotic selection pressure, with shaking at 230 rpm. Each culture was induced overnight at 16° C. using 1 mM IPTG.
(§2) The pellet from each induced shake flask culture was harvested via centrifugation. Each pellet was resuspended and lysed via sonication. The cell debris was separated from the supernatant via centrifugation and the cell free extract was used immediately in enzyme activity assays.
Enzyme activity assays in the reverse direction (i.e., 7-aminoheptanoate to pimelate semialdehyde) were performed in a buffer composed of a final concentration of 50 mM HEPES buffer (pH=7.5), 10 mM 7-aminoheptanoate, 10 mM pyruvate and 100 μM pyridoxyl 5′ phosphate. Each enzyme activity assay reaction was initiated by adding cell free extract of the ω-transaminase gene product or the empty vector control to the assay buffer containing the 7-aminoheptanoate and incubated at 25° C. for 4 h, with shaking at 250 rpm. The formation of L-alanine from pyruvate was quantified via RP-HPLC.

[4] = ω-transaminase activity, forward direction: pimelate semialdehyde to 7-aminoheptanoate (pyruvate formation by RP-HPLC); format: biochemical; conditions: conclusion from reverse and forward assays of Example 1
Protocol: as §1, §2
Enzyme activity in the forward direction (i.e., pimelate semialdehyde to 7-aminoheptanoate) was confirmed for the transaminases of SEQ ID NO 9, SEQ ID NO 10 and SEQ ID NO 12. Enzyme activity assays were performed in a buffer composed of a final concentration of 50 mM HEPES buffer (pH=7.5), 10 mM pimelate semialdehyde, 10 mM L-alanine and 100 μM pyridoxyl 5′ phosphate. Each enzyme activity assay reaction was initiated by adding a cell free extract of the ω-transaminase gene product or the empty vector control to the assay buffer containing the pimelate semialdehyde and incubated at 25° C. for 4 h, with shaking at 250 rpm. The formation of pyruvate was quantified via RP-HPLC.

[5] = ω-transaminase activity: 7-aminoheptanol to 7-oxoheptanol (L-alanine formation by RP-HPLC); format: biochemical
Protocol: A nucleotide sequence encoding an N-terminal His-tag was added to the Chromobacterium violaceum, Pseudomonas syringae and Rhodobacter sphaeroides nucleic acids encoding the ω-transaminases of SEQ ID NOs: 7, 9 and 10, respectively (see FIG. 6) such that N-terminal HIS tagged ω-transaminases could be produced. The modified genes were cloned into a pET21a expression vector under the T7 promoter. Each expression vector was transformed into a BL21[DE3] E. coli host. Each resulting recombinant E. coli strain were cultivated at 37° C. in a 250 mL shake flask culture containing 50 mL LB media and antibiotic selection pressure, with shaking at 230 rpm. Each culture was induced overnight at 16° C. using 1 mM IPTG.
as §2
Enzyme activity assays in the reverse direction (i.e., 7-aminoheptanol to 7-oxoheptanol) were performed in a buffer composed of a final concentration of 50 mM HEPES buffer (pH=7.5), 10 mM 7-aminoheptanol, 10 mM pyruvate, and […] pyridoxyl 5′ phosphate. Each enzyme activity assay reaction was initiated by adding cell free extract of the ω-transaminase gene product or the empty vector control to the assay buffer containing the 7-aminoheptanol and then incubated at 25° C. for 4 h, with shaking at 250 rpm. The formation of L-alanine was quantified via RP-HPLC.

[6] = from the literature; cited from earlier work

B1: SEQ ID NO: 5: Mycobacterium massiliense carboxylate reductase, N-terminal HIS tagged (protein)
chain: MTNETNPQQEQLSRRIESLRESDPQFRAAQPDPAVAEQVLRPGLHLSEAIAALMTGYAERPALGERARELVIDQDGRTTLRLLPRFDTTTYGELWSRTTSVAAAWHHDATHPVKAGDLVATLGFTSIDYTVLDLAIMILGGVAVPLQTSAPASQWTTILAEAEPNTLAVSIELIGAAMESVRATPSIKQVVVFDYTPEVDDQREAFEAASTQLAGTGIALETLDAVIARGAALPAAPLYAPSAGDDPLALLIYTSGSTGAPKGAMHSENIVRRWWIREDVMAGTENLPMIGLNFMPMSHIMGRGTLTSTLSTGGTGYFAASSDMSTLFEDMELIRPTALALVPRVCDMVFQRFQTEVDRRLASGDTASAEAVAAEVKADIRDNLFGGRVSAVMVGSAPLSEELGEFIESCFELNLTDGYGSTEAGMVFRDGIVQRPPVIDYKLVDVPELGYFSTDKPHPRGELLLKTDGMFLGYYKRPEVTASVFDADGFYMTGDIVAELAHDNIEIIDRRNNVLKLSQGEFVAVATLEAEYANSPVVHQIYVYGSSERSYLLAVVVPTPEAVAAAKGDAAALKTTIADSLQDIAKEIQLQSYEVPRDFIIEPQPFTQGNGLLTGIAKLARPNLKAHYGPRLEQMYAEIAEQQAAELRALHGVDPDKPALETVLKAAQALLGVSSAELAADAHFTDLGGDSLSALSFSDLLRDIFAVEVPVGVIVSAANDLGGVAKFVDEQRHSGGTRPTAETVHGAGHTEIRAADLTLDKFIDEATLHAAPSLPKAAGIPHTVLLTGSNGYLGHYLALEWLERLDKTDGKLIVIVRGKNAEAAYGRLEEAFDTGDTELLAHFRSLADKHLEVLAGDIGDPNLGLDADTWQRLADTVDVIVHPAALVNHVLPYNQLFGPNVVGTAEIIKLAITTKIKPVTYLSTVAVAAYVDPTTFDEESDIRLISAVRPIDDGYANGYGNAKWAGEVLLREAHDLCGLPVAVFRSDMILAHSRYTGQLNVPDQFTRLILSLIATGIAPGSFYQAQTTGERPLAHYDGLPGDFTAEAITTLGTQVPEGSEGFVTYDCVNPHADGISLDNFVDWLIEAGYPIARIDNYTEWFTRFDTAIRGLSEKQKQHSLLPLLHAFEQPSAAENHGVVPAKRFQHAVQAAGIGPVGQDGTTDIPHLSRRLIVKYAKDLEQLGLL
modifications: N-terminal His tag; Mycobacterium massiliense
notes: Mycobacterium massiliense carboxylate reductase, N-terminal HIS tagged
acceptance of N7-acetyl-7-aminoheptanoate as substrate (NADPH consumption) [1]: accepted N7-acetyl-7-aminoheptanoate as substrate

acceptance of pimelate as substrate (NADPH consumption) [2]: accepted pimelate as substrate
B2: SEQ ID NO: 4: Segniliparus rugosus carboxylate reductase, N-terminal HIS tagged (protein, listed as Segniliparus rugosus)
chain: MGDGEERAKRFFQRIGELSATDPQFAAAAPDPAVVEAVSDPSLSFTRYLDTLMRGYAERPALAHRVGAGYETISYGELWARVGAIAAAWQADGLAPGDFVATVGFTSPDYVAVDLAAARSGLVSVPLQAGASLAQLVGILEETEPKVLAASASSLEGAVACALAAPSVQRLVVFDLRGPDASESAADERRGALADAEEQLARAGRAVVVETLADLAARGEALPEAPLFEPAEGEDPLALLIYTSGSTGAPKGAMYSQRLVSQLWGRTPVVPGMPNISLHYMPLSHSYGRAVLAGALSAGGTAHFTANSDLSTLFEDIALARPTFLALVPRVCEMLFQESQRGQDVAELRERVLGGRLLVAVCGSAPLSPEMRAFMEEVLGFPLLDGYGSTEALGVMRNGIIQRPPVIDYKLVDVPELGYRTTDKPYPRGELCIRSTSLISGYYKRPEITAEVFDAQGYYKTGDVMAEIAPDHLVYVDRSKNVLKLSQGEFVAVAKLEAAYGTSPYVKQIFVYGNSERSFLLAVVVPNAEVLGARDQEEAKPLIAASLQKIAKEAGLQSYEVPRDFLIETEPFTTQNGLLSEVGKLLRPKLKARYGEALEARYDEIAHGQADELRALRDGAGQRPVVETVVRAAVAISGSEGAEVGPEANFADLGGDSLSALSLANLLHDVFEVEVPVRIIIGPTASLAGIAKHIEAERAGASAPTAASVHGAGATRIRASELTLEKFLPEDLLAAAKGLPAADQVRTVLLTGANGWLGRFLALEQLERLARSGQDGGKLICLVRGKDAAAARRRIEETLGTDPALAARFAELAEGRLEVVPGDVGEPKFGLDDAAWDRLAEEVDVIVHPAALVNHVLPYHQLFGPNVVGTAEIIRLAITAKRKPVTYLSTVAVAAGVEPSSFEEDGDIRAVVPERPLGDGYANGYGNSKWAGEVLLREAHELVGLPVAVFRSDMILAHTRYTGQLNVPDQFTRLVLSLLATGIAPKSFYQQGAAGERQRAHYDGIPVDFTAEAITTLGAEPSWFDGGAGFRSFDVFNPHHDGVGLDEFVDWLIEAGHPISRIDDHKEWFARFETAVRGLPEAQRQHSLLPLLRAYSFPHPPVDGSVYPTGKFQGAVKAAQVGSDHDVPHLGKALIVKYADDLKALGLL
modifications: N-terminal His tag
notes: Segniliparus rugosus carboxylate reductase, N-terminal HIS tagged

B3: SEQ ID NO: 7: Chromobacterium violaceum ω-transaminase, N-terminal HIS tagged (protein, listed as Chromobacterium violaceum)
chain: MQKQRTTSQWRELDAAHHLHPFTDTASLNQAGARVMTRGEGVYLWDSEGNKIIDGMAGLWCVNVGYGRKDFAEAARRQMEELPFYNTFFKTTHPAVVELSSLLAEVTPAGFDRVFYTNSGSESVDTMIRMVRRYWDVQGKPEKKTLIGRWNGYHGSTIGGASLGGMKYMHEQGDLPIPGMAHIEQPWWYKHGKDMTPDEFGVVAARWLEEKILEIGADKVAAFVGEPIQGAGGVIVPPATYWPEIERICRKYDVLLVADEVICGFGRTGEWFGHQHFGFQPDLFTAAKGLSSGYLPIGAVFVGKRVAEGLIAGGDFNHGFTYSGHPVCAAVAHANVAALRDEGIVQRVKDDIGPYMQKRWRETFSRFEHVDDVRGVGMVQAFTLVKNKAKRELFPDFGEIGTLCRDIFFRNNLIMRACGDHIVSAPPLVMTRAEVDEMLAVAERCLEEFEQTLKARGLA
modifications: N-terminal His tag
notes: Chromobacterium violaceum ω-transaminase, N-terminal HIS tagged
acceptance of 7-aminoheptanoate as substrate (conversion of pyruvate to L-alanine) [3]: accepted 7-aminoheptanoate as substrate
reversibility of ω-transaminase activity: pimelate semialdehyde accepted, 7-aminoheptanoate synthesized [4]: accepted pimelate semialdehyde as substrate and synthesized 7-aminoheptanoate as a reaction product
acceptance of 7-aminoheptanol as substrate (conversion of pyruvate to L-alanine) ([5]; cell free extract, 10 mM 7-aminoheptanol, 10 mM pyruvate, pH 7.5, 25° C., 4 h, against the empty vector control (FIG. 17)): accepted 7-aminoheptanol as substrate
acceptance of 7-oxoheptanol as substrate forming 7-aminoheptanol ([5]; concluded from the reversibility of the ω-transaminase activity (Example 1)): accept 7-oxoheptanol as substrate and form 7-aminoheptanol
activity on 7-aminoheptanoate (conversion to pimelate semialdehyde) [6]: demonstrated analogous activity accepting 7-aminoheptanoic acid as amino donor
